In publication PMC5921574 (Molecular Biology of the Cell, 2018):

Target: actin filaments (F-actin) from rabbit skeletal muscle (rabbit, UniProt P68135 1-377)
Test: co-sedimentation

B1: LEV-11A(E234K), recombinant (natural protein)
chain: MASDAIKKKMQAMKIEKDNALDRADAAEEKVRQITEKLERVEEELRDTQKKMTQTGDDLDKAQEDLSAATSKLEEKEKTVQEAEAEVASLNRRMTLLEEELERAEERLKIATEKLEEATHNVDESERVRKVMENRSLQDEERANTVEAQLKEAQLLAEEADRKYDEVARKLAMVEADLERAEERAEAGENKIVELEEELRVVGNNLKSLEVSEEKALQREDSYEEQIRTVSSRLKKAETRAEFAERSVQKLQKEVDRLEDELVHEKERYKTISEELDSTFQELSGY
  fold decrease in affinity against wild-type LEV-11A: ~3 fold
